B1: NBX0200 (VHH)
VHH: QVQLQESGGGLVQAGGSLRLSCAASGRTSSSAYTAWFRQAPGNEREFVASISWSGTTTYYADPVKGRFTISRDNAKNTVYLQMNSLKPDDTAVYYCAADRRSTIGSPRQQYAYWGQGTQVTVSS
notes: also called Clone 97
B2: NBX0202 (VHH)
VHH: B1 VHH with Y60H, D62H, S71F, A92G, S106T, Q109E
notes: also called Clone 99
B3: NBX0201 (VHH)
VHH: B1 VHH with G26T, A32S, W53Y, N74S
notes: also called Clone 98
B4: NBX0203 (VHH)
VHH: B1 VHH with E6Q, S30P, A32S
notes: also called Clone 100
B5: NBX0100 (VHH)
VHH: QVKLEESGGGLVQAGGSLRLSCAVSGSIFSTNLMGWYRQAPGKQRGFVAHITSGGNTDYLDSVKGRFTISRDNAKNTVYLQMNSLKPEDTAVYYCAAQTLGSSYYDAWGQGTQVTVSS
notes: also called Clone 92

Substitutions are numbered along the chain they refer to. Bounds are passed on as bounds.

For the assay, the target named is T1, FimA (Salmonella Type-1 fimbrial protein, A chain), recombinant (Salmonella (serovar ), UniProt P37921 23-185).
T1 sequence: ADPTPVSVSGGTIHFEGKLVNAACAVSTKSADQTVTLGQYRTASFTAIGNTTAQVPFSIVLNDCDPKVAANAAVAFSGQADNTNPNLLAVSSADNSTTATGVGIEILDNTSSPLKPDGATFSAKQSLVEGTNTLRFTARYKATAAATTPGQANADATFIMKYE
Briefly: phage ELISA, antigen-coated wells, anti-M13-HRP, A405. Background: An ELISA detects its analyte on a solid surface through an enzyme-linked reagent.
With B1, the “binding over background (PBS-only wells)” value is not below 4 fold.
For the molecule B2, the “binding over background (PBS-only wells)” value was not below 4 fold.
With B3, the “binding over background (PBS-only wells)” value was not below 4 fold.
Consider B4, for which the “binding over background (PBS-only wells)” value is not below 4 fold.
With B5, the “binding over background (PBS-only wells)” value was not below 4 fold.

The values above are taken from patent US20190202896A1 (NOVOBIND LIVESTOCK THERAPEUTICS, published 2019).
